These substances were tested against HLA-A*02:01 (Homo sapiens, UniProt P04439, D140Y/D185E/D98H/E176V/E277Q/G131W/G231S/I119V/I121R/I166T/I218V/L300P/L318F/N151K/N90K/P208A/P217A/Q86G/Q94H/R138H/R169H/T345S) (assay: MHC binding assay (UV-ligand exchange, ELISA of stabilized MHC complexes)). Conditions: MHC class I binding score; binding to HLA-A*02:01 ranged by peptide exchange yield (UV-ligand exchange, ELISA).
Method in brief: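 Binding scored as exchange yield, detected via β2m of stabilized complexes in an HRP/TMB ELISA read at 450 nm after streptavidin capture of 100-fold diluted monomers for 1 h at 37 °C. Complexes came from UV irradiation cleaving a photolabile peptide, exchanged for the candidate.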

Substance	Peptide exchange
130 (FLWNGEDSALL; listed as Homo sapiens) [compound 130]	″+++″ (≥50% = +++)
506 (KLLGKVETA; listed as Homo sapiens) [compound 506]	″+++″ (≥50% = +++)
564 (TVTNAVVTV; listed as Homo sapiens) [compound 564]	″+++″ (≥50% = +++)
617 (ALMYESEKVGV; listed as Homo sapiens) [compound 617]	″+++″ (≥50% = +++)
336 (ILLTAIVQV; listed as Homo sapiens) [compound 336]	″+++″ (≥50% = +++)
114 (SLVGEPILQNV; listed as Homo sapiens) [compound 114]	″++″ (≥20% = ++)
315 (YLQDVVEQA; listed as Homo sapiens) [compound 315]	″+++″ (≥50% = +++)
364 (LLQNEQFEL; listed as Homo sapiens) [compound 364]	″+++″ (≥50% = +++)
577 (VMFEDGVLMRL; listed as Homo sapiens) [compound 577]	″+++″ (≥50% = +++)
255 (VLASYNLTV; listed as Homo sapiens) [compound 255]	″+++″ (≥50% = +++)
351 (SLIPNLRNV; listed as Homo sapiens) [compound 351]	″+++″ (≥50% = +++)
275 (YLVYILNEL; listed as Homo sapiens) [compound 275]	″++″ (≥20% = ++)
518 (KLNAEVACV; listed as Homo sapiens) [compound 518]	″+++″ (≥50% = +++)
138 (YQYPRAILSV; listed as Homo sapiens) [compound 138]	″+++″ (≥50% = +++)
24 (SLSDGLEEV; listed as Homo sapiens) [compound 24]	″++″ (≥20% = ++)
218 (SALEELVNV; listed as Homo sapiens) [compound 218]	″++″ (≥20% = ++)
398 (KLLEEDGTIITL; listed as Homo sapiens) [compound 398]	″++″ (≥20% = ++)
84 (VTFGEKLLGV; listed as Homo sapiens) [compound 84]	″++″ (≥20% = ++)
107 (FLQPVDDTQHL; listed as Homo sapiens) [compound 107]	″+++″ (≥50% = +++)
452 (ILLEHGADPNL; listed as Homo sapiens) [compound 452]	″+++″ (≥50% = +++)
430 (HLYSSIEHLTT; listed as Homo sapiens) [compound 430]	″+++″ (≥50% = +++)
604 (SILDRDDIFV; listed as Homo sapiens) [compound 604]	″+++″ (≥50% = +++)
303 (AILPQLFMV; listed as Homo sapiens) [compound 303]	″++++″ (≥75% = ++++)
85 (KMSELRVTL; listed as Homo sapiens) [compound 85]	″+++″ (≥50% = +++)
541 (SMLEPVPEL; listed as Homo sapiens) [compound 541]	″+++″ (≥50% = +++)
102 (YLFESEGLVL; listed as Homo sapiens) [compound 102]	″+++″ (≥50% = +++)

Substance	Peptide exchange
352 (SLLELLHIYV; listed as Homo sapiens) [compound 352]	″+++″ (≥50% = +++)
635 (SLDSTLHAV; listed as Homo sapiens) [compound 635]	″+++″ (≥50% = +++)
605 (KLYEAVPQL; listed as Homo sapiens) [compound 605]	″+++″ (≥50% = +++)
238 (YLISFQTHI; listed as Homo sapiens) [compound 238]	″+++″ (≥50% = +++)
220 (LLQKFVPEI; listed as Homo sapiens) [compound 220]	″++″ (≥20% = ++)
274 (SLLFSLFEA; listed as Homo sapiens) [compound 274]	″++″ (≥20% = ++)
453 (KLLEATSAV; listed as Homo sapiens) [compound 453]	″++″ (≥20% = ++)
314 (ALIAEGIALV; listed as Homo sapiens) [compound 314]	″+++″ (≥50% = +++)
304 (MTLGQIYYL; listed as Homo sapiens) [compound 304]	″+++″ (≥50% = +++)
357 (SMHDLVLQV; listed as Homo sapiens) [compound 357]	″+++″ (≥50% = +++)
165 (SLLDEIRAV; listed as Homo sapiens) [compound 165]	″+++″ (≥50% = +++)
575 (YLISQVEGHQV; listed as Homo sapiens) [compound 575]	″+++″ (≥50% = +++)
505 (SLAPGDVVRQV; listed as Homo sapiens) [compound 505]	″++″ (≥20% = ++)
613 (RLLPPGAVVAV; listed as Homo sapiens) [compound 613]	″+++″ (≥50% = +++)
329 (FLVTLNNVEV; listed as Homo sapiens) [compound 329]	″++++″ (≥75% = ++++)
334 (TLTKVLVAL; listed as Homo sapiens) [compound 334]	″+++″ (≥50% = +++)
571 (LLLTTIPQI; listed as Homo sapiens) [compound 571]	″+++″ (≥50% = +++)
526 (RLAEVGQYEQV; listed as Homo sapiens) [compound 526]	″++″ (≥20% = ++)
510 (KLYSVVSQL; listed as Homo sapiens) [compound 510]	″++″ (≥20% = ++)
229 (RLPGPLGTV; listed as Homo sapiens) [compound 229]	″++″ (≥20% = ++)
401 (ILLDDTGLAYI; listed as Homo sapiens) [compound 401]	″+++″ (≥50% = +++)
493 (GLLGEKTQDLIGV; listed as Homo sapiens) [compound 493]	″+++″ (≥50% = +++)
409 (LLDAMNYHL; listed as Homo sapiens) [compound 409]	″++″ (≥20% = ++)
139 (SVMEVNSGIYRV; listed as Homo sapiens) [compound 139]	″+++″ (≥50% = +++)
597 (KLLEGQVIQL; listed as Homo sapiens) [compound 597]	″+++″ (≥50% = +++)
82 (FLSSVTYNL; listed as Homo sapiens) [compound 82]	″+++″ (≥50% = +++)

Substance	Peptide exchange
382 (ALQNYIKEA; listed as Homo sapiens) [compound 382]	″++″ (≥20% = ++)
142 (FLFATPVFI; listed as Homo sapiens) [compound 142]	″+++″ (≥50% = +++)
231 (FLSPQQPPLLL; listed as Homo sapiens) [compound 231]	″++″ (≥20% = ++)
542 (RVWDISTVSSV; listed as Homo sapiens) [compound 542]	″+++″ (≥50% = +++)
593 (GLPRFGIEMV; listed as Homo sapiens) [compound 593]	″+++″ (≥50% = +++)
147 (SLLEAVSFL; listed as Homo sapiens) [compound 147]	″+++″ (≥50% = +++)
302 (ALLQEGEVYSA; listed as Homo sapiens) [compound 302]	″+++″ (≥50% = +++)
330 (QLALKVEGV; listed as Homo sapiens) [compound 330]	″+++″ (≥50% = +++)
190 (FLSSLTETI; listed as Homo sapiens) [compound 190]	″+++″ (≥50% = +++)
230 (ILVDWLVEV; listed as Homo sapiens) [compound 230]	″+″ (≥10% = +)
176 (YLMEGSYNKVFL; listed as Homo sapiens) [compound 176]	″++″ (≥20% = ++)
305 (SIANFSEFYV; listed as Homo sapiens) [compound 305]	″++++″ (≥75% = ++++)
240 (ILLEQAFYL; listed as Homo sapiens) [compound 240]	″+++″ (≥50% = +++)
468 (YLRSVGDGETV; listed as Homo sapiens) [compound 468]	″+++″ (≥50% = +++)
86 (NLIGKIENV; listed as Homo sapiens) [compound 86]	″+++″ (≥50% = +++)
19 (FMVDNEAIYDI; listed as Homo sapiens) [compound 19]	″++++″ (≥75% = ++++)
367 (SLQNHNHQL; listed as Homo sapiens) [compound 367]	″+++″ (≥50% = +++)
587 (VMNDRLYAI; listed as Homo sapiens) [compound 587]	″+++″ (≥50% = +++)
491 (GLNDRSDAV; listed as Homo sapiens) [compound 491]	″++″ (≥20% = ++)
545 (LLADLLHNV; listed as Homo sapiens) [compound 545]	″+++″ (≥50% = +++)
28 (QLLDETSAITL; listed as Homo sapiens) [compound 28]	″+++″ (≥50% = +++)
295 (VLDRESPNV; listed as Homo sapiens) [compound 295]	″+++″ (≥50% = +++)
600 (ALAAPDIVPAL; listed as Homo sapiens) [compound 600]	″+++″ (≥50% = +++)
485 (NVPDSFNEV; listed as Homo sapiens) [compound 485]	″+++″ (≥50% = +++)
195 (GLFADLLPRL; listed as Homo sapiens) [compound 195]	″+++″ (≥50% = +++)

Source: patent publication US10472401B2, “Peptides and combination of peptides for use in immunotherapy against ovarian cancer and other cancers” (immatics biotechnologies GmbH, priority 2015, dated 2019)
